# Measurements published in article PMC10391610, “Survivin prevents the polycomb repressor complex 2 from methylating histone 3 lysine 27” (iScience, 2023).
# B1: EED_(128-152) peptide (peptide)
# peptide: SQGEIRLLQSYVDADADENFYTCAW
# notes: embryonic ectoderm development (EED), residues 128-152; source: synthetic peptide, bought: Biomatik (purified to 95%)
# B2: SUZ12_(573-597) peptide (peptide)
# peptide: PLRPQEMEVDSEDEKDPEWLREKTI
# notes: suppressor of zeste 12 (SUZ12), residues 573-597; source: synthetic peptide, bought: Biomatik (purified to 95%)
# B3: EZH2_(172-211) peptide (peptide)
# peptide: VELVNALGQYNDDDDDDDGDDPEEREEKQKDLEDHRDDKE
# notes: source: synthetic peptide, bought: Biomatik (purified to 95%)
# B4: JARID2_(170-194) peptide (peptide)
# peptide: PNSMVYFGSSQDEEEVEEEDDETED
# notes: as for B3
# Target: T1, survivin (His-tagged, from pHIS8) (human, UniProt O15392 1-142)
# T1 construct: survivin, human, residues 1-142 (142 amino acids), called the full-length construct; plasmid pHis8-survivin obtained from the Verdecia lab (doi 10.1038/76838); The tag is detected by the anti-His antibody on the microarray; For NMR the protein was uniformly 15N labelled (M9 medium); For MST one copy was labelled with the GREEN-MALEIMIDE (cysteine reactive) dye; also called survivin_(1-142); …
# T1 sequence (O15392 whole entry, the tested form may be a part): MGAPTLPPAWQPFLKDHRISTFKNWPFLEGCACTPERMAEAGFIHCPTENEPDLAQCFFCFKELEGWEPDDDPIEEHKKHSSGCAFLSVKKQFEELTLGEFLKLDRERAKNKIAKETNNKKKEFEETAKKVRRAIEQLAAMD
# Test: NMR titration; peptides titrated into [U-15N]-survivin (0.3 mM); 2D [15N,1H]-SOFAST-HMQC; NMR buffer (50 mM Tris, 150 mM NaCl, 1 mM DTT, pH 7.5), 298 K; global signal attenuation fitted with a logistic function (critical peptide concentration, cpc)
# Conditions: both partners purified
row,Binder,NMR cpc (critical peptide concentration) [µM]
1,B1,0.0076
2,B2,0.0066
3,B3,0.0021
4,B4,0.0085
